Results taken from the supplement of paper PMC10567573.
± gives the standard deviation.

Experiment: protein stability index of a GFP-peptide fusion (GPS, HEK-293T) (PSI 1-6); higher = more stable
Details: c terminus: a fixed tail appended
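Also: 24-mer peptide tiles fused after GFP, lentivirally expressed, FACS-sorted into six equal bins by GFP/DsRed ratio, decoded by Illumina sequencing, PSI is the read-weighted mean bin number.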

Row | Sequence | protein stability index (treatment: DMSO) | protein stability index (treatment: MLN4924 1 uM, 8 h)
1 | EILSESVVPDVRSVVTTARMQVLK [SMARCE1] | 2.87 ± 0.56 | 2.54 ± 0.38
2 | TPHTPKSLLSKARGIDSSSVKLRG [WEE1] | 4.26 ± 0.54 | 4.08 ± 0.28
3 | SGLGSCLPGSYLSSECHTSGFVGS [KRT36] | 2.62 ± 0.32 | 2.69 ± 0.23
4 | IQEAQSAWKDDFALNSMLRRRFRE [YJU2B] | 3.53 ± 0.14 | 3.69 ± 0.25
5 | KVRSLETENSALQLQVTEREEVRG [LMNB1] | 5.22 ± 0.35 | 5.53 ± 0.15
6 | PASGEVEASQLRRLNIKKDDEFFH [TMEM40] | 4.79 ± 0.1 | 4.78 ± 0.25
7 | TTVGYGDMKPITVGGKIVGSLCAI [KCNA4] | 2.23 ± 0.47 | 2.4 ± 0.27
8 | YQEASNLEQFVTRFLLKETLNQLQ [NECAB1] | 2.66 ± 0.81 | 2.44 ± 0.69
9 | ERCNQLLRALKLVITALKCHKYDR [ZER1] | 2.56 ± 0.47 | 2.71 ± 0.47
10 | EIIRKQVSATKAEAEKDGVKVPTT [UBE2R2] | 4.84 ± 0.37 | 4.7 ± 0.25
11 | VKAEPFIKWLKEAEEESSGGEEED [EIF5] | 5.3 ± 0.28 | 5.4 ± 0.15
12 | DSCVLTGPDDSLWDKHACPAYVGP [TRIB3] | 3.65 ± 0.33 | 3.62 ± 0.19
13 | RLMSFRPICSANHKESKMTIFEKE [CRYBA1] | 3.14 ± 0.16 | 3.5 ± 0.21
14 | AIFDAGTLGGELGALEALELSPPL [FOXJ1] | 3.26 ± 0.23 | 3.31 ± 0.31
15 | MGRKRLITDSYPVVKRREGPAGHS [POLD4] | 3.33 ± 0.32 | 3.2 ± 0.29
16 | EGAQRDRFPGRKQPGVHEEPVLKK [C22orf31] | 5.15 ± 0.3 | 5.17 ± 0.31
17 | MLVDGIDPNFKMEHQNKRSPLHAA [EHMT1] | 3.41 ± 0.39 | 3.67 ± 0.31
18 | IEEDMNNSIAHYRQVNIRTANCTT [KCNA1] | 3.71 ± 0.55 | 3.57 ± 0.48
19 | FWPAKVMQKEDNQVDVRFFGHHHQ [ZMYND11] | 2.71 ± 0.52 | 2.47 ± 0.18
20 | ANETLAEMEEELRYAPLSFRNPMM [VTI1B] | 2.42 ± 0.63 | 3.01 ± 0.56
21 | QFGQDGPISVHCSAGVGRTGVFIT [PTPRD] | 2.46 ± 0.48 | 2.15 ± 0.22
22 | FRHLRLQYIISDLASARIIEQDAV [GMCL1] | 2.6 ± 0.73 | 2.44 ± 0.48
23 | GHHAEKLPAGAGAPKAGLEEAPAV [TNFSF13B] | 5.22 ± 0.3 | 5.27 ± 0.2

Row | Sequence | protein stability index (treatment: DMSO) | protein stability index (treatment: MLN4924 1 uM, 8 h)
24 | YFLLCDVLPEDRILREELQKQRLR [ZNF277] | 2.37 ± 0.3 | 2.28 ± 0.54
25 | YNDVMQENYETVISLALFVLPKPK [ZNF75A] | 2.82 ± 0.64 | 2.71 ± 0.84
26 | EEIRGGGLLKYCSLLVHGFKPACM [TENT5D] | 3.11 ± 0.5 | 2.35 ± 0.67
27 | NRVSWWGSTLAMLQRLKEQQFVIA [ZBED1] | 2.41 ± 0.38 | 2.48 ± 1
28 | LPLERDAESFLLKSPIAPCSLDKR [CDC25B] | 4.35 ± 0.18 | 4.35 ± 0.15
29 | VVEVENFLFVLGGEDQWNPNGKHS [KLHL14] | 2.39 ± 0.31 | 2.37 ± 0.19
30 | GLTFQGLLPLTELSVCPLEGSREH [PLEKHN1] | 3.57 ± 0.35 | 3.62 ± 0.35
31 | TNTHPPASLPSQKYPGPQAEGDSE [CHGA] | 5.43 ± 0.2 | 5.57 ± 0.13
32 | EDEDKSEPEQTGADAAEDEEVDVT [RBBP5] | 5.66 ± 0.28 | 5.73 ± 0.31
33 | DTYDSVYLHPNSYSCACLASGSVL [HDAC6] | 2.21 ± 0.15 | 2.3 ± 0.25
34 | ETLSGHGPLAQPLTLQVLVAGNPQ [ADAMTS4] | 3 ± 0.43 | 2.98 ± 0.31
35 | SLQFDEKCLSIMLAEWEANPLICP [RPAIN] | 2.33 ± 0.24 | 2.29 ± 0.18
36 | AAVKAAREAFPSWSSRSPQERSRV [ALDH8A1] | 3.73 ± 0.23 | 3.88 ± 0.48
37 | VYMTEPIDEYCVQQLKEFDGKSLV [HSP90AB1] | 3.06 ± 0.15 | 3.29 ± 0.25
38 | QVLFDKVCEHLNLLEKDYFGLTYR [EPB41L3] | 2.4 ± 0.13 | 2.55 ± 0.28
39 | TSFCGQQFILERGEYPRWDAWSGS [CRYBA1] | 2.77 ± 0.68 | 2.65 ± 0.39
40 | CHLAHELRLSCMERKKVQIRSMDP [DCAF4] | 2.39 ± 0.25 | 2.42 ± 0.2
41 | QCIECGKSFNRHCNLIRHQKIHTV [ZSCAN9] | 3.37 ± 0.3 | 3.36 ± 0.38
42 | CPIIRIPNRFLRGHRPPPARSGHR [KLHDC10] | 2.68 ± 0.69 | 3.32 ± 0.85
43 | ASPSSSVRLGSFRSPRAGAGALLR [PRPH] | 3.65 ± 0.26 | 3.81 ± 0.19
44 | NGEYVPWLYCYDPVMDVWARKQDM [KLHL14] | 2.49 ± 0.09 | 2.57 ± 0.21
45 | YTFHARFGEVRPYFYLGGARGAGP [TRIM35] | 2.27 ± 0.083 | 2.28 ± 0.4
46 | RSRSLDIQPSSEGLGPTSEPFPSS [SPAG8] | 5.46 ± 0.23 | 5.52 ± 0.094

Row | Sequence | protein stability index (treatment: DMSO) | protein stability index (treatment: MLN4924 1 uM, 8 h)
47 | RWPFDHNDFGVFLCKLFPFLQKSS [EDNRA] | 2.2 ± 0.19 | 2.05 ± 0.38
48 | EPTEVEEVVPALEPTETLLSEKEI [BCL2L13] | 5.5 ± 0.35 | 5.71 ± 0.12
49 | YNLTILDCLQGIRKGLQHGFFDFE [CDC14A] | 2.68 ± 1.1 | 2.71 ± 0.89
50 | LLKALVSELSEHLRDPLTSLSHTE [FCHSD1] | 2.44 ± 0.42 | 2.2 ± 0.17
51 | EPYARLPPHKHVARPTEVLAGTQL [TRIB3] | 4.05 ± 0.1 | 3.88 ± 0.28
52 | VAQLFNCMVGLLLIALLTWGYIRY [ATL3] | 3.11 ± 0.58 | 2.77 ± 0.42
53 | SIQWPGKRSSRRVQRHNSFSPNSP [NECAB1] | 3.54 ± 0.27 | 3.62 ± 0.23
54 | EMFTKPVVILPCQHNLCRKCASDI [TRIM55] | 2.96 ± 0.3 | 2.83 ± 0.47
55 | LFTSFQEPPCEGNTFFCHSNMCIN [NETO1] | 2.14 ± 0.42 | 2.13 ± 0.41
56 | EVRDRMLLKITIPNAFIGSDVVDW [DVL3] | 2.17 ± 0.43 | 2.46 ± 0.15
57 | RPLARPIKPNEILPPEKGREVAKE [RHOBTB2] | 4.91 ± 0.16 | 4.68 ± 0.66
58 | RSSEFYRVTTEQYQKAAEEVEAKF [CHCHD3] | 4.88 ± 0.32 | 4.78 ± 0.074
59 | LEWHDSLFQILSERQDMYQCLVEG [ZNF511] | 2.42 ± 0.24 | 2.43 ± 0.29
60 | VLSNMEKLFCIPVHGIRSVGTAAV [IMPA1] | 2.09 ± 0.47 | 2.12 ± 0.059
61 | EAAEGKSLGSALKPGEGRSALFAG [TRIM29] | 4.87 ± 0.17 | 4.76 ± 0.19
62 | EKMALDPYTELRKQPLRKYVTPSD [EFHC1] | 4.03 ± 0.29 | 3.95 ± 0.064
63 | AWFFSKTEELNKEVASNTEMIQTS [KRT15] | 3.83 ± 0.18 | 3.84 ± 0.081
64 | NIWASQSVLSACDNLSDLVMVRWN [IQUB] | 2.14 ± 0.11 | 2.27 ± 0.46
65 | QQQIHHIKNLYAFNLFCQKRFDES [VPS39] | 2.29 ± 0.11 | 2.42 ± 0.15
66 | RAYQYTTLTSVQLLDCFGIPVLMA [SLC35F2] | 3.13 ± 0.64 | 2.66 ± 0.85
67 | VVCASYEDYGHWLLCLRAVTHREG [PLEKHN1] | 2.52 ± 0.56 | 2.62 ± 0.49
68 | QRRPRVLSCLHSVCEQCLQILYES [RNF208] | 2.32 ± 0.17 | 2.64 ± 0.54
69 | SLRKGASLSNGQGSRVLHVVQTLY [NCK2] | 2.29 ± 0.26 | 2.57 ± 0.11

Row | Sequence | protein stability index (treatment: DMSO) | protein stability index (treatment: MLN4924 1 uM, 8 h)
70 | EALGLEAEGAVPETQTLTGWSKGF [RHOBTB1] | 3.79 ± 0.098 | 4.05 ± 0.27
71 | DLLNNKLVTLPVSFAQLKNLKWLD [LRRC59] | 2.24 ± 0.23 | 2.17 ± 0.31
72 | RQRCMPEEDLQSQSETQGLEGAQA [MAGEA10] | 5.44 ± 0.28 | 5.44 ± 0.082
73 | RAPSRRHGVRAKVQPQARKKEMEM [CPN1] | 4.39 ± 0.26 | 4.64 ± 0.082
74 | DSLTSLQWLQEFSILNAKAPALPP [FOXJ1] | 2.26 ± 0.043 | 2.19 ± 0.075
75 | ELSRIVLMRHGMEKIWRPNRVFSL [RAB40C] | 2.37 ± 0.37 | 2.63 ± 0.41
76 | RTVAIWDVAEGYRKLSLKGHNDWV [WDR88] | 2.46 ± 0.38 | 2.54 ± 0.44
77 | GARARGVAMLGVFLVSAVAHEYIF [SOAT2] | – | 3.591 ± 0.02
78 | GGNVECIKLLQSSGADFHKKDKCG [ANKRD44] | 4.48 ± 0.17 | 4.38 ± 0.1
79 | RENEELSARYLSQCQEAEQARAEL [FBF1] | 5.38 ± 0.16 | 5.34 ± 0.09
80 | NKGTRFSEAWEYFHLAPARAGHHP [ZBED2] | 2.64 ± 0.16 | 2.96 ± 0.22
81 | EDSDVEMVEDDSRKEMTAACTPRR [MLH1] | 5.54 ± 0.3 | 5.67 ± 0.18
82 | GARPPPTPPASPPPSVLISKNEVG [KMT2E] | 4.91 ± 0.12 | 5.08 ± 0.18
83 | GPMEEVERQVLPDPEVLEAVGDRQ [PBXIP1] | 5.62 ± 0.25 | 5.59 ± 0.21
84 | YIESSTKVYDDMAFRYLSWILFPL [CLPTM1] | 2.73 ± 0.13 | 2.61 ± 0.47
85 | ESRQTEVVIRDIDERAMELLIDFA [KLHL20] | 2.9 ± 0.095 | 2.96 ± 0.24
86 | LASYLEKVRQLERDNAELEKLIQE [KRT34] | 3.33 ± 0.22 | 3.5 ± 0.24
87 | EVKFPNASDMFRRLRDAGFRVTLW [MYORG] | 2.97 ± 0.74 | 2.17 ± 0.31
88 | IYSTDLHKLDLNTREWTQLKPNNL [KLHDC10] | 2.65 ± 0.18 | 2.81 ± 0.15
89 | SSLEFTELLTLVNRKVSQRRVDFC [CASP6] | 2.37 ± 0.43 | 2.32 ± 0.087
